Test system: [H][C@]12SCC(COC(C)=O)=C(C(=O)O)N1C(=O)[C@H]2NC(=O)CCC[C@@H](N)C(=O)O
Test: CPC hydrolysis kinetics (Lineweaver-Burk plot), fivefold mutant
Format: biochemical, Pseudomonas sp. SE83
Conditions: other: substrate CPC, purified enzyme, 0.1 M Tris-HCl pH 8.0, 37° C.
Method: The enzyme activity of CPC acylase mutant to CPC was measured according to the method described by Park et al. with minor modifications as follows (Park, et al., Kor. J. Appl. Microbiol. Biotechnol. 23: 559-564, 1995). A substrate solution was prepared by dissolving CPC (purity 74.2%; CJ Corp., Korea) in 0.1 M Tris-HCl buffer solution (pH 8.0) at a concentration of 20 mg/ml and adjusting pH to 8 with 1 N NaOH. 20 μl of the CPC solution was mixed with 20 μl of the crude enzyme solution prepared above and the reaction mixture was incubated at 37° C. for 5 min. After the reaction, the mixture (200 μl) of 50 mM NaOH and 20% glacial acetic acid (1:2) was added thereto to stop the reaction. 200 μl of the supernatant recovered from the reaction mixture by centrifugation was mixed with 40 μl of 0.5% (w/v) PDAB (p-dimethylaminobenzaldehyde; Sigma, USA) dissolved in a methanol and the reaction mixture was incubated at 37° C. for 10 min. After the reaction, the absorbance of reaction mixture was measured at 415 nm and quantified by comparing with a calibration curve of standard material. […] Meanwhile, the specific activity of CPC acylase mutant for CPC was determined by measuring the amount of protein remaining in the enzyme solution according to the method described by Bradford (Bradford, M., Anal. Biochem. 72: 248-254, 1976) and representing it as an active unit corresponding to 1 mg of protein. […]

With “Pseudomonas sp. SE83 CPC acylase AcyII fivefold mutant F169αY/M31βL/F58βM/H70βS/I176βV (mI176) (Pseudomonas sp. SE83; F170Y/F297M/H309S/I415V/M270L)” the Km was 8 mM.

From US7592168B2, “Cephalosporin C acylase mutant and method for preparing 7-ACA using same” (Sandoz AG, priority 2003, dated 2009)
